In data set [1] the target is MMP-3 (Homo sapiens, UniProt P08254). The following applies: commercial (CALBIOCHEM) inhibitor data; read-out: IC50 against MMP-3; cited from earlier work.
Data set [2] addresses T1, hADAM-19 (Homo sapiens, UniProt Q9H013).
T1 construct: made in house
T1 sequence (Q9H013 26-701 isoform Q9H013-2): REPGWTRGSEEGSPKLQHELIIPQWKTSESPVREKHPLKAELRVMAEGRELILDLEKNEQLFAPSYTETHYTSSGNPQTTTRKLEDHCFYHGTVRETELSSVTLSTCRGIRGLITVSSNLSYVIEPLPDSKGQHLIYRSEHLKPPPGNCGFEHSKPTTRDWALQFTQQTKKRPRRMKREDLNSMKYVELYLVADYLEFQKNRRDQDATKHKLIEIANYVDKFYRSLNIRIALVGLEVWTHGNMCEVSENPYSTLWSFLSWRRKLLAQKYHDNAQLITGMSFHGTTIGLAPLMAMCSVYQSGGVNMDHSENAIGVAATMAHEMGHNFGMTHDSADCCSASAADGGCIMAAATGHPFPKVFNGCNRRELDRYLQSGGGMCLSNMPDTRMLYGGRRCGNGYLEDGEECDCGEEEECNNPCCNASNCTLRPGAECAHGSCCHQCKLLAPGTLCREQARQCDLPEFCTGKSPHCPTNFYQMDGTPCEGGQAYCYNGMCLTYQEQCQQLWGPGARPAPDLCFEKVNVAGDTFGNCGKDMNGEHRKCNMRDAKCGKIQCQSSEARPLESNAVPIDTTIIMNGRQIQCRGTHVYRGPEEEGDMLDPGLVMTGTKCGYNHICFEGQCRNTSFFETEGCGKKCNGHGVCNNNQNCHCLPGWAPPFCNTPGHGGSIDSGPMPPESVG
In words: Inhibition of α2-M cleavage by hADAM-19 (SDS-PAGE, silver staining). To be noted: 1 mM inhibitor. It counts as biochemical. As to the method:
20 mM EDTA, 20 rmiM EGTA, 10 mM HgCl2, 1 miM TIMP-1,-2 (TIMP: hADAM-19 molar ratio was 100:1) and three commercial (CALBIOCHEM) small molecule human MMP inhibitors were used to inhibit α2-M cleavage by hADAM-19. […] Briefly, different concentrations of those inhibitors were mixed with 7.5 μl of hADAM-19 (50 μg/ml) in 22.9 μl of 1× HEPES buffer (50 mM HEPES, pH 7.5, 0.2 M NaCl, 10 mM CaCl2, 25 μM ZnCl, and 0.05%Brij-35) and incubated at room temperature (24° C.) for 2-hr, then 7.1 μl of substrate α2-M (0.2 unit/ml) were added and incubated at 37° C. for 20-hr. The reactions were stopped by adding 4× sample bufer and boiled immediately for 5 minutes. After SDS-PAGE, the protein bands were visualized by silver staining.

Data set [3] addresses MMP-9 (Homo sapiens, UniProt P14780). To be noted: commercial (CALBIOCHEM) inhibitor data; read-out: IC50 against MMP-9; cited from earlier work.
In data set [4] the target is MMP-1 (Homo sapiens, UniProt P03956). The following applies: commercial (CALBIOCHEM) inhibitor data; read-out: IC50 against MMP-1; cited from earlier work.
Sequence of MMP-1 (P03956 100-469): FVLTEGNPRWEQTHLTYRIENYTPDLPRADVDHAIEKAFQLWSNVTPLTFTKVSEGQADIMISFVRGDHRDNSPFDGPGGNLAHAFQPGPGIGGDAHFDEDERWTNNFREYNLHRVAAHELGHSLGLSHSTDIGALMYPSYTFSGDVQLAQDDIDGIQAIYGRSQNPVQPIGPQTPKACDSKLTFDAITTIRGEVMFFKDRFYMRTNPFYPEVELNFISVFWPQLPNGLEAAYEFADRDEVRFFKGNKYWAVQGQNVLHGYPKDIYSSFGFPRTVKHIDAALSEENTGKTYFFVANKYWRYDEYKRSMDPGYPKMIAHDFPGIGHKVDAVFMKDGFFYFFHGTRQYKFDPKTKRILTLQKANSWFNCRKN
Data set [5] addresses MMP-8 (Homo sapiens, UniProt P22894). To be noted: commercial (CALBIOCHEM) inhibitor data; read-out: IC50 against MMP-8; cited from earlier work.
In data set [6] the target is T2, Bovine plasma alpha-2-macroglobulin (UniProt Q7SIH1).
T2 sequence: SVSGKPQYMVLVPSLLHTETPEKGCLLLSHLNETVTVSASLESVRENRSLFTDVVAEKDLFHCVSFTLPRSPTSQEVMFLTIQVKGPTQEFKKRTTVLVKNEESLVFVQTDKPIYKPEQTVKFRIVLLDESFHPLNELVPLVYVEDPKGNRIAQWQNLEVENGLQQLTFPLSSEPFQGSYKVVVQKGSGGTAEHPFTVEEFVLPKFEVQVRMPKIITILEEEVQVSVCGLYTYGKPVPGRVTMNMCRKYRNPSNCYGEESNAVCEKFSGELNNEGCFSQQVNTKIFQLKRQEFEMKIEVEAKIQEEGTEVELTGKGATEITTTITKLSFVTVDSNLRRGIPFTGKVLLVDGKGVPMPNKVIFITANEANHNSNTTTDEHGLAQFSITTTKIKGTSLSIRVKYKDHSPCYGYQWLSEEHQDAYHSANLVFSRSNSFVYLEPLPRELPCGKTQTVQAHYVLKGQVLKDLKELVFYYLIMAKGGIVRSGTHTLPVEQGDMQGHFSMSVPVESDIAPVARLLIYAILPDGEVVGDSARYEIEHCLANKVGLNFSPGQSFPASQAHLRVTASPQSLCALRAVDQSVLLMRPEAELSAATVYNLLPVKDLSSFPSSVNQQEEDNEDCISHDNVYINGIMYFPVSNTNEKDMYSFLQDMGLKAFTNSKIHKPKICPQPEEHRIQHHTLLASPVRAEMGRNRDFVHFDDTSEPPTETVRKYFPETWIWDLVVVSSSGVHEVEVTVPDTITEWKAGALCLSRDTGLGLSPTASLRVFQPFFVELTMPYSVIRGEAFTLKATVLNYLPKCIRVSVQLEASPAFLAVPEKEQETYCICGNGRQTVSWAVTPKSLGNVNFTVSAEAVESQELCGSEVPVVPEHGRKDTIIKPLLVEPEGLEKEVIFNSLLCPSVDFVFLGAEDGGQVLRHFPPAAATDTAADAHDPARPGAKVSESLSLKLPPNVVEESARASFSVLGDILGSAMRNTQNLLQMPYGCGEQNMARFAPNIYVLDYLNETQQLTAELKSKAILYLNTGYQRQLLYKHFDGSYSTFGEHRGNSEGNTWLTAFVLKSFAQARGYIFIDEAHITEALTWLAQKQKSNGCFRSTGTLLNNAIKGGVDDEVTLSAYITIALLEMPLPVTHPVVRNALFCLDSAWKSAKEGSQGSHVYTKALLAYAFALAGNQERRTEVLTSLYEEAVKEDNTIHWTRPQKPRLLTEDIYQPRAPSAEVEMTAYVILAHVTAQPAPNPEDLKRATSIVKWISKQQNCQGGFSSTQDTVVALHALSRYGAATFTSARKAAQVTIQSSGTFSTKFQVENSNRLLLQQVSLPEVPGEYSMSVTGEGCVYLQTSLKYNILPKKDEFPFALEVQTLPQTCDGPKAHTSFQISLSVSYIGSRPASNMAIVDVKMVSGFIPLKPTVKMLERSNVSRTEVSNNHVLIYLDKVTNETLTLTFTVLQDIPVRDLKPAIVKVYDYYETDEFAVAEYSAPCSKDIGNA

For data set [7], the target named is rat tail tendon type I gelatin.
Data set [8] concerns the target bovine casein.
Data set [9] deals with Mca fluorogenic peptide substrate M-2255.
Data set [10] deals with Mca fluorogenic peptide substrate M-2105.
The target of data set [11] is Mca fluorogenic peptide substrate M-2110.
For data set [12], the target named is Mca fluorogenic peptide substrate M-2225.
In data set [13] the target is Mca fluorogenic peptide substrate M-1985.
Data set [14] concerns the target T3, Bovine plasma alpha-2-macroglobulin, Q7SIH1.
T3 chain: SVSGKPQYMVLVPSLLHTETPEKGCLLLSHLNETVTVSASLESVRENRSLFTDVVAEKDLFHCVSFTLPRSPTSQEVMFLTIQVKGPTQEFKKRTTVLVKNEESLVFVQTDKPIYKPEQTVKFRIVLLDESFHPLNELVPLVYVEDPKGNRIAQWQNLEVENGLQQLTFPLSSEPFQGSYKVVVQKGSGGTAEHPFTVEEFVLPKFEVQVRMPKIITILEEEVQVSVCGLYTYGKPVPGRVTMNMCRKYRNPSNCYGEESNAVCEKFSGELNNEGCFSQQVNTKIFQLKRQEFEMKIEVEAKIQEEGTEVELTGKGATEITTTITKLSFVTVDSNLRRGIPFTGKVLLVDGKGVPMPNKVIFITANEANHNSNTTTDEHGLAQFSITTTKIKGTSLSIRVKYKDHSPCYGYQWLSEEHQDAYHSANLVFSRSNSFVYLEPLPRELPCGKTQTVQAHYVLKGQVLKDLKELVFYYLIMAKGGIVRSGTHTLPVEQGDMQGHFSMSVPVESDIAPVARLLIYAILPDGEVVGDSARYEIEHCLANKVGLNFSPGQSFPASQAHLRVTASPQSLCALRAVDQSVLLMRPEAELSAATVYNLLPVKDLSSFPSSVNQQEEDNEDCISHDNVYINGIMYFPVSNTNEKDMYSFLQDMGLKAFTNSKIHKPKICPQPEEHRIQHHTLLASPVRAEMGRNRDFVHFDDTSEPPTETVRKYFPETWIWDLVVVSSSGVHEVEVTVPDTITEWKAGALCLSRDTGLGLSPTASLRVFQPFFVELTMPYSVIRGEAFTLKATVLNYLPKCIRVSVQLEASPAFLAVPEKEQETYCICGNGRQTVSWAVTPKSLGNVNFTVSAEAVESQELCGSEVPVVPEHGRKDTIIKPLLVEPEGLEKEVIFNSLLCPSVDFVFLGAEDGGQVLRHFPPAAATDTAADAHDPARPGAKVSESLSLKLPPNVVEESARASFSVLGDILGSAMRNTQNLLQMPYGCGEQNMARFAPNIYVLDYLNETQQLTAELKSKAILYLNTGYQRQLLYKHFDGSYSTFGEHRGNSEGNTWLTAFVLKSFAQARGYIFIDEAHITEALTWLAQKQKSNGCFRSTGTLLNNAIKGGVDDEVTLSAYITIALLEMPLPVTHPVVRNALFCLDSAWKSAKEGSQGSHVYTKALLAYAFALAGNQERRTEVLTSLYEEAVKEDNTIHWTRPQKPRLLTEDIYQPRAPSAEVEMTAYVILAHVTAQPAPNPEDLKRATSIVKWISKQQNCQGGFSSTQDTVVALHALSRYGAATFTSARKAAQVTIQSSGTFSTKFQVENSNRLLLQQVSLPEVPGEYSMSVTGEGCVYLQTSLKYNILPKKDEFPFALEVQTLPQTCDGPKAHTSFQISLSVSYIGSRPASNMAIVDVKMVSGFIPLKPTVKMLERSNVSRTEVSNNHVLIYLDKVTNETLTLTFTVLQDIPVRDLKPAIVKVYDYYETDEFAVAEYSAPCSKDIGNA

Square brackets hold non-standard residues; d marks the D form. Peptide text beside a SMILES is read from it. * marks the point of attachment. 4Abz = Nc1ccc(C(=O)O)cc1; NHOH = ON*

Sequence of MMP-9 (P14780 94-707): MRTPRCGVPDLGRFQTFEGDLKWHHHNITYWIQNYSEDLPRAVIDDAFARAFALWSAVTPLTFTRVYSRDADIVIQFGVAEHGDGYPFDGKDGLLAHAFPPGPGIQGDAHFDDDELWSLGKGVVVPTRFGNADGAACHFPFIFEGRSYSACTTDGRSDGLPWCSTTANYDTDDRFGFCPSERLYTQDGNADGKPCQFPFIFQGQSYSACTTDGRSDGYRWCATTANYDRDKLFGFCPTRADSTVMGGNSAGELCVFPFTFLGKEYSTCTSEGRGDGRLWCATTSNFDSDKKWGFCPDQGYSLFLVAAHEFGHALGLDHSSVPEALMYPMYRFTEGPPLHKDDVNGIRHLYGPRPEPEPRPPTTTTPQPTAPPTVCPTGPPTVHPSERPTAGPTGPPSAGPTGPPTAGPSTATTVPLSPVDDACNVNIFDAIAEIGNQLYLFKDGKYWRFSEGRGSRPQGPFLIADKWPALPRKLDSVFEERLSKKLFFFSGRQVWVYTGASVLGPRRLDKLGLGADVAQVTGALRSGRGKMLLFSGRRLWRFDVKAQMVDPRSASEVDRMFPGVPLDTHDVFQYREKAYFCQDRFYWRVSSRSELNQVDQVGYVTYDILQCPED
Sequence of MMP-3 (P08254 100-477): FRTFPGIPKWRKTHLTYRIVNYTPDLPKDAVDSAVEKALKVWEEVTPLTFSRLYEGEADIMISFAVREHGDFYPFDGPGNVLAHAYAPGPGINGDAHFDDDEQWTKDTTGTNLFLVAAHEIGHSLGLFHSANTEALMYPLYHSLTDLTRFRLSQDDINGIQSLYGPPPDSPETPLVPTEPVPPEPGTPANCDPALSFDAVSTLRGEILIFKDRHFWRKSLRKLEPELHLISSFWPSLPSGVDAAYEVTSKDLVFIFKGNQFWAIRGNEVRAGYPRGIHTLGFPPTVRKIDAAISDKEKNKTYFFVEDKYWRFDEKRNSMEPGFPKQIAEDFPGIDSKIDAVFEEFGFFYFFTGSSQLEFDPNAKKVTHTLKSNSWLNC
Sequence of MMP-8 (P22894 101-467): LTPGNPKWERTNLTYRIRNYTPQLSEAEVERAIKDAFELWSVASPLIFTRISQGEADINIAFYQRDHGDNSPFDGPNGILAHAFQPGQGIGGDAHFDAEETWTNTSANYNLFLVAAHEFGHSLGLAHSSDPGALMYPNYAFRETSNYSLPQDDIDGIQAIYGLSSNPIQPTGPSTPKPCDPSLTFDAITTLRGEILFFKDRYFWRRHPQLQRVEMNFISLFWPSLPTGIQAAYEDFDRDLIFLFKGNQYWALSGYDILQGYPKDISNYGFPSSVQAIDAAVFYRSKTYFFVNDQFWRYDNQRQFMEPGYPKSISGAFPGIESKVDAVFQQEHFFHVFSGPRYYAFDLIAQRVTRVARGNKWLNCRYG

On to `CC(C)C[C@@H](NC(=O)[C@@H]1CCCN1C(=O)CNC(=O)c1ccc(N)cc1)C(=O)N[C@H](C)C(=O)NO` [MMP inhibitor I] (H-[4Abz]GP[dL][dA]-{NHOH}), for which the IC50 is 150 µM in data set [1], 30 µM in [3], 1000 nM in [4] and 1000 nM in data set [5]. The “blockage of hADAM-19 digestion of α2-M” value in data set [2] was “did not block”.
As to Trypsin, the “cleavage of α2-M (SDS-PAGE, silver staining)” value in data set [6] is “Trypsin was used as a positive proteinase control to cleave α2-M and it generated a 72 kDa major band and a 35 kDa minor band”.

B1: Flag-tagged hADAM-19 protein (residues 26-701 of SEQ ID NO: 9) (protein)
chain: REPGWTRGSEEGSPKLQHELIIPQWKTSESPVREKHPLKAELRVMAEGRELILDLEKNEQLFAPSYTETHYTSSGNPQTTTRKLEDHCFYHGTVRETELSSVTLSTCRGIRGLITVSSNLSYVIEPLPDSKGQHLIYRSEHLKPPPGNCGFEHSKPTTRDWALQFTQQTKKRPRRMKREDLNSMKYVELYLVADYLEFQKNRRDQDATKHKLIEIANYVDKFYRSLNIRIALVGLEVWTHGNMCEVSENPYSTLWSFLSWRRKLLAQKYHDNAQLITGMSFHGTTIGLAPLMAMCSVYQSGGVNMDHSENAIGVAATMAHEMGHNFGMTHDSADCCSASAADGGCIMAAATGHPFPKVFNGCNRRELDRYLQSGGGMCLSNMPDTRMLYGGRRCGNGYLEDGEECDCGEEEECNNPCCNASNCTLRPGAECAHGSCCHQCKLLAPGTLCREQARQCDLPEFCTGKSPHCPTNFYQMDGTPCEGGQAYCYNGMCLTYQEQCQQLWGPGARPAPDLCFEKVNVAGDTFGNCGKDMNGEHRKCNMRDAKCGKIQCQSSEARPLESNAVPIDTTIIMNGRQIQCRGTHVYRGPEEEGDMLDPGLVMTGTKCGYNHICFEGQCRNTSFFETEGCGKKCNGHGVCNNNQNCHCLPGWAPPFCNTPGHGGSIDSGPMPPESVG
As for B1, the substrate digestion result is “rat tail tendon type I gelatin and bovine casein, were not dissolved by hADAM-19” in data set [7]; “rat tail tendon type I gelatin and bovine casein, were not dissolved by hADAM-19” in [8]. The “fluorogenic peptide substrate cleavage” value in [9] was “Neither were the 5 different synthetic fluorogenic peptide substrates listed in the Materials and Methods”; in [10], “Neither were the 5 different synthetic fluorogenic peptide substrates listed in the Materials and Methods”; in [11], “Neither were the 5 different synthetic fluorogenic peptide substrates listed in the Materials and Methods”; in data set [12], “Neither were the 5 different synthetic fluorogenic peptide substrates listed in the Materials and Methods”; in [13] it was “Neither were the 5 different synthetic fluorogenic peptide substrates listed in the Materials and Methods”. The “cleavage of α2-M (SDS-PAGE, silver staining)” value in data set [14] is “Human hADAM-19 cleaved α2-M to yield new bands of 105 kDa and a 72 kDa”. In addition, the “proteolysis of alpha-2 macroglobulin” value in [14] is “a polypeptide corresponding to this gene displayed metal-dependant proteolysis of alpha-2 macroglobulin”.

As a reminder, the IC50 is the midpoint of a concentration-inhibition curve.

The values are drawn from patent US20020173640A1, “ADAM polynucleotides, polypeptides, and antibodies” (Human Genome Sciences, Inc., priority 1999, published 2002).
